For assay [1], the target named is T1, recombinant murine MOG protein (murine, UniProt Q61885 29-156, limits assumed).
T1 construct: Bought recombinant protein; also called MMOG
T1 sequence (looked up): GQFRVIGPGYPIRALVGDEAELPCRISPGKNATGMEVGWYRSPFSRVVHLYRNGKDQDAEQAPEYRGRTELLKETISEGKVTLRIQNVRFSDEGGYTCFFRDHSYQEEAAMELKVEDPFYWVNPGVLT
As to the kind of experiment: phage-scFv ELISA on coated recombinant murine MOG (0.5 µg/well), anti-M13 HRP, OD450 over BSA background. Here is the method:
(§1) The binding characteristics of the scFvs expressed on the surface of the phages isolated during the screening were determined using an ELISA assay using the recombinant MOG protein (R&D system). Along with the selected clones, phage-scFv-8-18C5 is expressed to serve as a positive control for ELISA. Briefly, phage-scFv were produced in the form of clones isolated on a 96-well plate in 800 μl of 2YT/ampicillin/glucose cultures infected with the helper phage M13K07 (as described previously). The phages produced overnight at 26° C. were then recovered in the supernatants after 30 minutes of centrifugation at 3000 g. These supernatants were directly diluted 1/2 in PBS/4% BSA/0.1% Tween 20 and tested on Maxisorp immunoplates previously coated with 0.5 μg of human or murine MOG or PBS (background control (bdf) in BSA)/well and blocked with 4% BSA in PBS. After incubation for 2 hours at 37° C., the wells were washed 3 times with PBS/0.1% Tween-20 and bound phages-scfv were detected with anti-M13 HRP antibody (GE Healthcare). The plate is read at 450 nm (OD) on a plate reader (TECAN). The results are expressed as a ratio: OD on target/OD bdf (OD on an uncoated plate saturated with BSA) and the ratios are compared with that obtained for the positive control.
A general note: ELISA stands for enzyme-linked immunosorbent assay.

The target in assay [2] is T2, recombinant human MOG protein (human, UniProt Q16653 30-154, limits assumed).
T2 construct: Bought recombinant protein; also called HMOG
T2 sequence (looked up): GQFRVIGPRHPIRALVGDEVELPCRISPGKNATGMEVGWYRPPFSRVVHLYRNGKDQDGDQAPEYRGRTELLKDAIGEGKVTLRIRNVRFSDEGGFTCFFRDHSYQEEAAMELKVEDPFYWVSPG
Briefly: phage-scFv ELISA on coated recombinant human MOG (0.5 µg/well), anti-M13 HRP, OD450 over BSA background. As to the method:
as §1

B1: anti-MOG MO3I-60 antibody (scFv, V domains shown)
VH: EVQLVESGGGLVKPGGSLGLSCAASGFTFTNAWGHWVRQAPGKGLEWVGRIKSKTDGGTTDYAAPVKDRFSISRDDSKNTLYLQMNSPTTEDTAVYYCATENGMDIVTTFDSWGQGTLVTVSS
VL: AIRMTQSPSSLSASVGDRVTITCRASQSIGSYLSWYRQKPGKAPKLLIYDSSTLQSGVASRFSGSGSGTDFTLTISALQPEDFATYYCHQSYRTPLSFGGGTKVEIK
Regarding B1, the “ratio OD on target/OD bdf” value was found to be 2.75 ratio in assay [1] and 2.09 ratio in assay [2].

B2: anti-MOG MO4H-106 antibody (scFv, V domains shown)
VH: QVQLVQSGAEVKKPGASVKVSCKASGYTFTTYNIHWMRQAPGQSLEWMGWISTGNGDTEYSQKLQGSVTFTRDTSASTVYMDLNSLTPGDTAVYSCARESLFVSSWYADYWGQGTLVTVSS
VL: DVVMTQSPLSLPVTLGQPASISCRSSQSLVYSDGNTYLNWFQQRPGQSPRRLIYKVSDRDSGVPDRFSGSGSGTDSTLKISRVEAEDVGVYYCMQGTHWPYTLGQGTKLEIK
In the case of B2, the results for the “ratio OD on target/OD bdf” value in assay [1] and in assay [2] were 2.78 ratio and 2.55 ratio, respectively.

B3: anti-MOG MO3I-69 antibody (scFv, V domains shown)
VH: DQVQLVQSGAEVKPGASVKVSCKASGYTFTYYYLHWVRQAPGQGLEWMGWINPNSGATIFAQKFQGRVTLTRDTSISTAYLDLSRLRSDDTAVYYCARASMAYQYHSDVDYWGLGTLVTVSS
VL: QSVLTQPPSVSGAPGQRVTISCTGSSSNIGAGYDVHWYQQLPGTAPKLLIYGNSNRPSGVPDRFSGSKSGTSASLAITGLQAEDEADYYCQSYDSSLVVFGGGTKLTVL
Consider B3, for which the “ratio OD on target/OD bdf” value in assay [1] stood at 2.76 ratio; in assay [2], 2.26 ratio.

B4: anti-MOG MO3J-43 antibody (scFv, V domains shown)
VH: EVQLVESGGGLVKPGGSLRLSCAASGFTFSDYYMSWIRQAPGKGLEWVSYISSSGNTIYYADSVKGRFTISRDNAKNSLYLQMNSLRAEDTAVYYCAKDSPVPTVWGQGTLVTVSS
VL: QSVVTQPPSVSGAPGQRVSISCTGGSSNIGADYDVHWYQQLPGTAPKLLIYGNNNRPSGVPDRFSGSKSGTSASLAISGLQPEDEAVYYCQSYDSGLRSSVFGGGTKLTVL
On to B4, for which the “ratio OD on target/OD bdf” value in assay [1] amounted to 8.26 ratio; in assay [2] it was 20.8 ratio.

B5: anti-MOG MO4H-118 antibody (scFv, V domains shown)
VH: EVQLVQSGAEVKKPGASVKVSCKVSGYTLTELSMHWVRQAPGKGLEWMGGFDPEDGETIYAQKFQGRVTMTEDTSTDTAYMELSSLRSEDTAVYYCATIGPKVAAHTYYFDYWGQGTLVTVSS
VL: DIQLTQSPSSLSASVGDRVTITCRASQTIVTYLNWYQQKPGKAPNLLITDASSLQSGVPSRFSGTESGTDFTLTISSLQPEDFGSYYCQSYMNPITFGQGTRLEIN
Consider B5, for which the entries for the “ratio OD on target/OD bdf” value in assay [1] and in assay [2] were 4.01 ratio and 2.04 ratio, respectively.

B6: anti-MOG MO3I-56 antibody (scFv, V domains shown)
VH: QVQLVESGGGVVQPGSSLRLSCTASGFKFDDYAMHWVRQAPGKGLEWVSGISWNSGSIGYADSVKGRFTISRDNAKNSLYLQMNSLRAEDTASYYCAKSLPHYYDSPPYGMDVWGQGTLVTVSS
VL: DIQLTQSPSSLSASVGDRVTITCRASQGISSALAWYQQKPGKAPKLLIYDASSLESGVPSRFSGSGSGTDFTLTISSLQPEDFATYYCQHRGTFGGGTKVDIK
Turning to B6, the “ratio OD on target/OD bdf” value in assay [1] and in assay [2] was 2.29 ratio throughout.

B7: anti-MOG MO3J-51 antibody (scFv, V domains shown)
VH: EVQLVQSGAEVKKPGASVKVSCKASGYTFTSYGISWVRQAPGQGLEWMGWISAYNGNTNYAQKLQGRVTMTTDTSTSTAYMELRSLGSDDTAVYYCARNMGCSSTSCFVSWFDPWGQGTLVTVSS
VL: QSVLTQPPSVSAAPGRKVTISCSGSSSNIGNNYVAWYQQLPGTAPKLLIYENNKRPSGIPGRFSGSKSATSATLGITGLQTGDEADYYCGTWDNSLSAWVFGGGTKLTVL
In the case of B7, the “ratio OD on target/OD bdf” value in assay [1] stood at 4.76 ratio; in assay [2] it was 14.6 ratio.

B8: anti-MOG MO3I-34 antibody (scFv, V domains shown)
VH: EVQLVQSGAEVKKPGASVKVSCKASGYTFTSYGISWVRQAPGQGLEWMGWISAYNGNTNYAQKLQGRVTMTTDTSTSTAYMELRSLRSDDTAVYYCARNMGCSSTSCFVSWFDPWGQGTLVTVSS
VL: QSVLTQPPSVSAAPGQKVTISCSGSRSNIGSNYVSWYQQLPGTAPKLLIYDNTRRPSGIPDRFYGSKSGTSATLDITGLQTGDEADYHCATWDSSLSALLFGGGTKVTVL
Consider B8, for which the “ratio OD on target/OD bdf” value is 2.45 ratio in assay [1] and 2.14 ratio in assay [2].

B9: anti-MOG MO3J-44 antibody (scFv, V domains shown)
VH: QVQLVQSGAEVRKPGASVKISCQISGYNFISYTIQWVRQAPGQRPEWMGWINSGNGNTKYSQKFQGRVTFTRDTSTSTAYMELSSLRSEDTAVYYCARSGIGPWGQGTLVTVSS
VL: EIVLTQPPDLQSVTPKKKVTITCRASQSIGNSLHWCQQKPDQSPKLLIKYASQSISGVPSRFSGSGSGTDFTLTINSLEAEDAATYYCHQSSSLPFTFGPGTKVDIK
For the molecule B9, the “ratio OD on target/OD bdf” value worked out at 6.61 ratio in assay [1] and 14.5 ratio in assay [2].

B10: anti-MOG MO3J-38 antibody (scFv, V domains shown)
VH: QVQLVQSGPEVRKPGASVKVSCRASGYTFTSNDINWVRQAAGQGLEYLGWLHPKSGGTGYAQKFQGRVTMTRDTSISTAYLELSNLTSDDTAVYYCARVSFDEVIDFWGQGTLVTVSS
VL: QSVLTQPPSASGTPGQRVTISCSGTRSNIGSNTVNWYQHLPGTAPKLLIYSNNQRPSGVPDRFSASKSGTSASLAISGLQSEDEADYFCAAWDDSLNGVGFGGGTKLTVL
For the molecule B10, the “ratio OD on target/OD bdf” value came out at 5.59 ratio in assay [1] and 18.4 ratio in assay [2].

B11: anti-MOG MO3I-33 antibody (scFv, V domains shown)
VH: DQVQLVQSGAEVKPGATVKISCKVSGYTFTDYYMHWVQQAPGKGLEWMGLVDPEDGETIYAEKFQGRVTITADTSTDTAYMELSSLRSEDTAVYYCATSYHGTSGFDYWGQGTLVTVSS
VL: QSVVTQPPSVSGAPGQRVTIACTGSNSDIGAGHDVHWYQQFPRTAPKLIIFGNTNRPSGVPDRFSGSKSGTSASLVITGLQADDEADYHCQSYDNNLSGPIFGGGTKLTVL
On to B11, for which the “ratio OD on target/OD bdf” value is 2.52 ratio in assay [1] and 2.53 ratio in assay [2].

B12: anti-MOG MO3I-57 antibody (scFv, V domains shown)
VH: QVQLVQSGAEVKKPGASVKVSCKASGYTFSSYGISWVRQAPGQGLEWMGWISANTGNTDYAERLQGRVTMTTDTSTTTAYMELRSLRSDDTAVYYCARGAPNGYAVDYWGQGTLVTVSS
VL: QSVLTQPPSASGAPGQRVSISCSGSSSNIGTNHVYWYQQFTGMAPKLIIDTNNQRPPGVPARFSGSKSGTSASLAISGLRSEDESDYYCLTWDDGLYDWVFGGGTKLTVL
Consider B12, for which the “ratio OD on target/OD bdf” value amounted to 2.77 ratio in assay [1] and 2.44 ratio in assay [2].

B13: anti-MOG MO3I-63 antibody (scFv, V domains shown)
VH: QVQLVQSGAEVKTPGASVKISCKASGYAFTSYAMHWVRAPGQGLEWMGWINAANANTKYSQRFQGRVTITRDTSASTAYMELNSLRSEDTAVYYCASSEDISRSNYYNYYMDVWGKGTTVTVSS
VL: DIVMTQSPSSLSASVGDRVTITCRASQTITTSLAWFQHRPGKAPKLLIYSASSLQSGVPSRFSGSGSGTDFTLTISSLQPEDFATYSCQQTYSAPPTFGGGTKVEIK
For the molecule B13, the entries for the “ratio OD on target/OD bdf” value in assay [1] and in assay [2] were 5.55 ratio and 2.66 ratio, respectively.

B14: anti-MOG MO3J-40 antibody (scFv, V domains shown)
VH: EVQLVESGAEVKKPGESLKISCKGSGYTFTSNWIGWVRQMPGKGLEWMGIIYPGDSDTRYSPSFQGQGTISADKSISTAYLQWSSLRASDTAMYYCARASIAVRPHIDYWGQGTLVTVSS
VL: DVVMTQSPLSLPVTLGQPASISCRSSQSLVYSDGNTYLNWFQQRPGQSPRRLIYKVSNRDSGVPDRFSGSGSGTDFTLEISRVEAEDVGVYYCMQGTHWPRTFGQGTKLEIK
B14: the results for the “ratio OD on target/OD bdf” value in assay [1] and in assay [2] were 6.48 ratio and 21 ratio, respectively.

B15: anti-MOG MO3J-52 antibody (scFv, V domains shown)
VH: QMQLVQSGAEVKKPGSSVKVSCKASGGTFSSYAISWVRQAPGQGLEWMGGIIPIFGTANYAQKFQGRVTITADESTSTAYMELSSLRSEDTAVYYCARAREGLLVNYYGMDVWGQGTLVTVSS
VL: DIQMTQSPSTLSASVGDRVTTTCRASQGISNYLAWFQQKPGKAPKSLIYAASSLQSGVPSRFSGGGSGTDFTLTINSLQPEDFATYYCLHDYNYPTFGQGTKVEIK
Take B15: the “ratio OD on target/OD bdf” value in assay [1] was determined as 6.86 ratio; in assay [2] it was 16.3 ratio.

B16: anti-MOG MO3I-30 antibody (scFv, V domains shown)
VH: EVQLLESGGGLVQPGGSLRLSCVASGFTFRSYWMHWVRQDPGEGLVWVSRVSGDGSSTNYADSVKGRFVISRDNAKDTLYLQMYSLRGEDTAVYYCLRGNDGYGNFDYWGQGTTVTVSS
VL: DVVMTQSPLSLPVTLGQPASISCRPSQSLVYSDGNTYLNWFQQRPGQSPRRLIYKVSNRDYVVPDRFSGSGSGTDFTLKISRVEAEDVGVYYCMQGTHWPLTFGGGTKVEIK
For B16, the “ratio OD on target/OD bdf” value is 2.19 ratio in assay [1] and 2.86 ratio in assay [2].

(Values after patent publication US20210238281A1 (INSTITUT NATIONAL DE LA SANTE ET DE LA RECHERCHE MEDICALE …, published 2021).)
